Publication PMC6931119

Target: microtubules (human (endogenous in HEK293T)) (UniProt P68363)
Assay: co-sedimentation; microtubule co-sedimentation assay of HEK293T cells with overexpressed Climp63-HA and GFP or GFP-Calu1; 37°C; P pellet = microtubule fraction, S supernatant = free tubulin fraction

Chain of UniProt P68363 (P68363 whole entry, chain 1 of 2): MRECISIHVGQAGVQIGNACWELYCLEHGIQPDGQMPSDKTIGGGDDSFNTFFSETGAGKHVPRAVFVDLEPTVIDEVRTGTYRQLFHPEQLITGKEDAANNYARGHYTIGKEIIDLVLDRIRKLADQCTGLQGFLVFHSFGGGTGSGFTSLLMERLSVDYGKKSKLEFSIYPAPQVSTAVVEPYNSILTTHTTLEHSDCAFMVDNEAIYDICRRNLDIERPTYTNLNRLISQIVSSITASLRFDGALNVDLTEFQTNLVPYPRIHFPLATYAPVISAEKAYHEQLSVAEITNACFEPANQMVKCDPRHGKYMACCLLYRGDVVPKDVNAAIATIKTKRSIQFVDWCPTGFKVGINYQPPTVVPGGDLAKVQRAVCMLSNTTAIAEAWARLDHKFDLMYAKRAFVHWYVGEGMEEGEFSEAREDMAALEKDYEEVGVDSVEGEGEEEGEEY
Chain of UniProt P68363 (P07437 whole entry, chain 2 of 2, further chain): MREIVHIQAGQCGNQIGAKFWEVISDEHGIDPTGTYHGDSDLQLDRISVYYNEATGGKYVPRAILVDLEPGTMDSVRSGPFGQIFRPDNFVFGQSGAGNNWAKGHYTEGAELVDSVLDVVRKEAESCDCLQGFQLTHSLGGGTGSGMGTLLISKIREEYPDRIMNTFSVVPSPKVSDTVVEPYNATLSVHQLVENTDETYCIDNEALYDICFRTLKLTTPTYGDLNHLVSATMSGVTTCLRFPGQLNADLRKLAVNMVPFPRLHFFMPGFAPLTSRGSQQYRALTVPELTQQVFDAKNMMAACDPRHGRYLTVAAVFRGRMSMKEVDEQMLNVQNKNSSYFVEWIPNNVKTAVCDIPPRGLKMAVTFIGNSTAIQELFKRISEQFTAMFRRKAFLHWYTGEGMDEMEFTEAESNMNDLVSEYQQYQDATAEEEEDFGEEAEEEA
Chain of Climp63-HA (Q07065 whole entry): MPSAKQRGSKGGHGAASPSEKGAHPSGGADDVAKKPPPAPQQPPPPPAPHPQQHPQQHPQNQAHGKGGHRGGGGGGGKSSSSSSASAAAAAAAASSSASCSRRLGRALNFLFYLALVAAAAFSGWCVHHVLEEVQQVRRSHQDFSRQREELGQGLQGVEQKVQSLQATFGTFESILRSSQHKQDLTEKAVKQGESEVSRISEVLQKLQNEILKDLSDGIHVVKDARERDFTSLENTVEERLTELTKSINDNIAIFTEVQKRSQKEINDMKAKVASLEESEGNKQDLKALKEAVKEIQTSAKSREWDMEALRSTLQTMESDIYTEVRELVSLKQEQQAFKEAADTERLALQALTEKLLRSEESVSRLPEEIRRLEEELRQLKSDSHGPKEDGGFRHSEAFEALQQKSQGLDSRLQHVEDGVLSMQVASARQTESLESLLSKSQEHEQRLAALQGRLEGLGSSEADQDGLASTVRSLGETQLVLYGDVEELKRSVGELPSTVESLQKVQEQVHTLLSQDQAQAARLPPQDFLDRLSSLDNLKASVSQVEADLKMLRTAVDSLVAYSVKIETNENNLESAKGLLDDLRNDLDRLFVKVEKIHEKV

For “Climp63-HA (from UniProt Q07065 1-602) (natural protein)”, the percent of Climp63 in the pellet (microtubule fraction) at 37°C, GFP overexpressed was 60% and the percent of Climp63 in the pellet (microtubule fraction) at 37°C, GFP-Calu1 overexpressed was 36%.
